Reference: patent publication US20120316113A1, “FGF BASED FIBRIN BINDING PEPTIDES” (Baxter Healthcare S.A., priority 2011, published 2012)
Entries after “also recorded” stand apart in the source; their conditions may differ. Ends that are not written are not given here.

Experiments:
[1] = target: T1, fibrinogen (Homo sapiens, UniProt P02671+P02675+P02679); assay: Fibrinogen binding assay by ELISA; conditions: plate coated with 1 mg/ml fibrinogen, various concentrations, anti-His6-peroxidase detection
T1 sequence (P02671 20-629 limits assumed): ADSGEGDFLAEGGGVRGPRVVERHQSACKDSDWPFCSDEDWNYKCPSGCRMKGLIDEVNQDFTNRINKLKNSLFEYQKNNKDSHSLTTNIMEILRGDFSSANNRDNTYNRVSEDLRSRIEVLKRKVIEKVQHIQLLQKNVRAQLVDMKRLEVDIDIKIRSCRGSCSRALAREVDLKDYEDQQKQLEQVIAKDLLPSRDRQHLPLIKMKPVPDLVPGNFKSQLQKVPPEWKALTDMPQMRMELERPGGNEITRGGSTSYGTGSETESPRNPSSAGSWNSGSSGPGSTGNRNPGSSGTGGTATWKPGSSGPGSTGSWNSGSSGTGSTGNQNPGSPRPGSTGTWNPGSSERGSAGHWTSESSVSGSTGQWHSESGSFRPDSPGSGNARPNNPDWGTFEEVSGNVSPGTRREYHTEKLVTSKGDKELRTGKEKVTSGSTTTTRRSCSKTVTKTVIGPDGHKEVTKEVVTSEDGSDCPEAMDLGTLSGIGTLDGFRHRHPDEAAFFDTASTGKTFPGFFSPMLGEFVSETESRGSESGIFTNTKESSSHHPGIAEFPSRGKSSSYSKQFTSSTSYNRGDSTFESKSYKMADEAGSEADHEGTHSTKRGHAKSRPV
T1 sequence (P02675 31-491): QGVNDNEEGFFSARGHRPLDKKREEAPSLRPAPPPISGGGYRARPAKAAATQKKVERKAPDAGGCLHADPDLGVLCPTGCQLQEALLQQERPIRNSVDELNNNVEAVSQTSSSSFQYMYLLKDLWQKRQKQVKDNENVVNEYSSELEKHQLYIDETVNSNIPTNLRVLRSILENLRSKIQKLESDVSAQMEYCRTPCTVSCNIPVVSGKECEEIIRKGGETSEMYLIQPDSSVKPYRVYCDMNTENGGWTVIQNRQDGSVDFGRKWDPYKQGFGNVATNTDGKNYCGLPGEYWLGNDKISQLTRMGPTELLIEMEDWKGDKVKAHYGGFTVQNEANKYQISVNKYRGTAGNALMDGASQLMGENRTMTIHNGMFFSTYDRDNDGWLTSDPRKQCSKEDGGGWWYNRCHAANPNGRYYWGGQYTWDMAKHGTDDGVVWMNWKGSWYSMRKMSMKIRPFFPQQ
T1 sequence (P02679 27-433 limits assumed): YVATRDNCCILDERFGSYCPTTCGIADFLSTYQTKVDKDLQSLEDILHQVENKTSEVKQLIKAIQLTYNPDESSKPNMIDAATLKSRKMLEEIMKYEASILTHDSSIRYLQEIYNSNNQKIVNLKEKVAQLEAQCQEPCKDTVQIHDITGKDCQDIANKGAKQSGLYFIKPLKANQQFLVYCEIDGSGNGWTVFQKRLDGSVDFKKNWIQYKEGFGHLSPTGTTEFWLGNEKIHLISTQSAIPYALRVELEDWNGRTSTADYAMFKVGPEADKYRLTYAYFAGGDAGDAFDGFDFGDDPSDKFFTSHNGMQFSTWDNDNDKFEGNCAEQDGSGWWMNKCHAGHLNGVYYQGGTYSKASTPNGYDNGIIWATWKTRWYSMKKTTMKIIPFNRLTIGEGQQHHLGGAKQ
Procedure: (§1) A polystyrene 96-well plate (Nunc® Maxisorp EUSA-plates) was coated with 1 mg/ml fibrinogen (Tisseel®, Baxter AG, Vienna) overnight at 4° C. and then blocked with blocking solution (PBS+1% BSA) for 2 hours at room temperature CRT). After washing three times with PBS, purified peptides were added in various dilutions to the plate and incubated for 1 hour at RT. After the three times washing with PBS, a monoclonal anti-His6-peroxidase antibody (Sigma-Aldrich, Vienna), diluted in PBS+0.1% Tween (Sigma-Aldrich, Vienna) was added and incubated for 1 hour at RT. Finally, the plate was washed three times with PBS again and wells were incubated with o-phenylenediaminehydrochlorid substrate. Absorbance was measured at 492 nm and 620 nm. For fibrin binding analysis, the plate was first coated with fibrinogen overnight at 4° C. and then incubated with 10 I.U./ml thrombin (Tisseel, Baxter AG, Vienna) for 30 minutes at 37° C. The following procedure was the same as described above. For the surface plasmon resonance (SPR) method fibrinogen was coupled to a gold sensor chip (10% COOH—(PEG)6-C11—SH, 90% OH(PEG)3-C11—SH; Reichert Analytical, NY, USA) by amine chemistry using EDC (1-ethyl-3-[3-dimethylaminopropyl]carbodiimide hydrochloride) and NHS (N-hydroxysuccinimide) (Pierce, Ill., USA). Uncoupled sites on the gold sensor chip were blocked with 1 M ethanolamine pH 8.5 (Sigma-Aldrich, MO, USA). The purified recombinant proteins and peptides were passed over the chip's surface at a flow rate of 0.4 ml/min to 0.8 ml/min and allowed to interact. The signals were detected and recorded at the Reichert SR7000 Surface Plasmon Resonance Analytical Instrument (Reichert Analytical, NY, USA). After each measurement the sensor chip surface was regenerated by a pulse with 100 mM phosphoric acid (Mallinckrodt Chemicals, NJ, USA) after each application of the samples. Association and dissociation signals were fitted to one association curve using a prism software calculation program.
Purified, proteins and peptides in different concentrations were used for testing the binding affinity to fibrinogen and fibrin (FIG. 5).

[2] = target: T1, fibrinogen; assay: Surface plasmon resonance (SPR) binding to fibrinogen coupled to gold sensor chip; conditions: fibrinogen on sensor chip; fitted association curves
Procedure: as §1

[3] = tested on: mouse myoblast cell line (C2C12); assay: Biological activity: viability (MTT) assay of mouse myoblast C2C12 cells; assay type: cell-based
Procedure: A moose myoblast cell line (C2C12; ECACC (Sigma-Aldrich, Vienna)) was grown in Dulbecco's Modified Eagle Medium (DMEM) with 10% fetal calf serum (FCS). At 50-60% confluence cells were trypsinized and transferred to a 24-well plate (1×10^4/well).
Following a 48-hour-culture period at 37° C., cells were washed with DMEM only and then covered with medium (DMEM+1% FCS) containing various concentrations of hFGF-2 or hFGF-2 peptides. After 48 hours number of viable cells was determined by adding 3-(4,5-dimethylthiazol-2-yl)-2,5-diphenyltetrazolium bromide (MTT, Sigma-Aldrich, Vienna) as previously described {M05}.

[4] = 146 amino acid variant; cited from earlier work

binding affinity to fibrinogen [1]	binding signal (SPR) [2]	Substance	activity retained relative to the full length protein ([3]; relative to full length hFGF-2)	proliferative activity / cell growth effect ([3]; 48 hours, DMEM+1% FCS, MTT)	concentration dependence of biological activity ([3]; various concentrations)	isoelectric point [4]
high affinity	weak and short binding signals	EERGVVSIKGVCANRYLAMKEDGRLLASKCVTDECFFFERLESNNYNTYRSR (EERGVVSIKGVCANRYLAMKEDGRLLASKCVTDECFFFERLESNNYNTYRSR; not fully specified (C-terminus); cysteine pairing not given here) [pep1, recombinant truncated hFGF-2 peptide (68 aa) with C-terminal 6x HIS-tag, expressed as GST fusion in E. coli and cleaved]	–	–	–	–
high affinity	weak and short binding signals	GVCANRYLAMKEDGRLLASKCVTDECFFFERLESNNYNTYRSR (GVCANRYLAMKEDGRLLASKCVTDECFFFERLESNNYNTYRSR; not fully specified (C-terminus); cysteine pairing not given here) [pep2, recombinant truncated hFGF-2 peptide (48 aa) with C-terminal 6x HIS-tag, ~5.2 kD]	approximately 50%	–	–	–
high affinity	–	Human Fibroblast growth factor-2 [hFGF-2, reference compound]	–	highest proliferative activity; also recorded: highest cell growth effect	concentration dependent biological activity	9.6
